Experimental data as given in patent US20210079400A1 (CZ BIOHUB SF, published 2021).

Biological target: T1, BMPR2 (human, on breast cancer cells) (human, UniProt Q13873 27-1038)
T1 construct: whole, on cells; The PDX cells are described as human breast tumor cells; also called BMP Receptor 2
T1 sequence (looked up): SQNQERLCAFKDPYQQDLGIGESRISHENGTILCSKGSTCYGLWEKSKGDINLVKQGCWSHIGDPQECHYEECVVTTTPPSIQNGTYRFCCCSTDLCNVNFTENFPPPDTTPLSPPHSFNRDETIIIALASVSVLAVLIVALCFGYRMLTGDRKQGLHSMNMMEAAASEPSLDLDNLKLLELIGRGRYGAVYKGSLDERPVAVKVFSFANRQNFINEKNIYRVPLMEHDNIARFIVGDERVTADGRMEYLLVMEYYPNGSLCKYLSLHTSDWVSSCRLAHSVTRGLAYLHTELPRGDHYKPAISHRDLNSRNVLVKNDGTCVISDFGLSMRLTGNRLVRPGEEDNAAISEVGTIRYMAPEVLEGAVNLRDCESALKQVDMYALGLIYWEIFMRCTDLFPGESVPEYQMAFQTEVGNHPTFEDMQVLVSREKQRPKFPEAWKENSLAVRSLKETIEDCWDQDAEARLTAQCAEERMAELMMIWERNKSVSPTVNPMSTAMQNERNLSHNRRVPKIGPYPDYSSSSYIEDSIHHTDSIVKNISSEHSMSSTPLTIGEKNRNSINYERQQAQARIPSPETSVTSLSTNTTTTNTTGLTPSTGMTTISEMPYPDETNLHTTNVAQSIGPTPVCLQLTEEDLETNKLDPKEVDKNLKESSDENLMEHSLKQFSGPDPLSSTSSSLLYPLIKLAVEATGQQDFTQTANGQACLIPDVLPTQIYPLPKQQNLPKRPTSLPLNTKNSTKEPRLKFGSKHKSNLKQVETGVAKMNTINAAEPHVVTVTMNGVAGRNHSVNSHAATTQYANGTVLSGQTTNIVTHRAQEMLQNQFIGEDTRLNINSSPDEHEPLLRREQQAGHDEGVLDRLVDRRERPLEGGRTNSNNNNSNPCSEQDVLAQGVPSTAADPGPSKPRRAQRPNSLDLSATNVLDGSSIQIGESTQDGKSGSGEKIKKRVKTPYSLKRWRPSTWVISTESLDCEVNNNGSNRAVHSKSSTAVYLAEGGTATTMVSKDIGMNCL
Assay: Proximity Ligation on sorted breast cancer PDX cells
Excerpt: Next, we examined the interaction of LEFTY-BMPR2 and BMP7-BMPR2 in different subpopulations of breast cancer cells. Tumor cells were isolated from 3 established breast cancer PDXs using flow cytometry. These models were characterized to follow the cancer stem cell paradigm. The cells were sorted based on EpCAM and CD49f cell surface markers. Different protein-protein interactions were quantified by Proximity Ligation and the cells were also simultaneously stained for pSMAD2 or pSMAD5. As shown in FIGS. 14A-14D, in the tumorigenic population the LEFTY-BMPR2 interaction is predominant, whereas the BMP7-BMPR2 interaction is predominant in non-tumorigenic population.

binding result: binds
B1: BMP7 (human, endogenous in breast cancer PDX cells) (ligand, UniProt P18075 293-431, looked up)
chain: STGSKQRSQNRSKTPKNQEALRMANVAENSSSDQRQACKKHELYVSFRDLGWQDWIIAPEGYAAYYCEGECAFPLNSYMNATNHAIVQTLVHFINPETVPKPCCAPTQLNAISVLYFDDSSNVILKKYRNMVVRACGCH
